How the values were obtained:
[1] = biological target: human CSF-1R, full length, on cells (human) (UniProt P07333); assay: displacement of ^125I-H27K15 on EL4-CSF-1R cells
[2] = biological target: human CSF-1R, full length, on cells (human) (UniProt P07333); assay: displacement of 1.5 nM ^125I-H27K15 (competitor) on EL4-CSF-1R cells
[3] = biological target: human CSF-1R, full length, on cells (human) (UniProt P07333); assay: displacement of 1.5 nM ^125I-H27K15 (competitor) on EL4-CSF-1R cells, Cheng-Prusoff
[4] = biological target: CSF-1R20-512-Fc (R&D Systems cat. 329-MR) (human) (UniProt P07333); assay: competition ELISA with biotinylated CSF-1(1-444) on coated CSF-1R-Fc, saturation doses, pre-, co- or post-incubation
[5] = biological target: CSF-1R20-512-Fc (R&D Systems cat. 329-MR) (human) (UniProt P07333); assay: competition ELISA, co-incubation: coated Fc-D1-D5 human CSF-1R, mAb and biotinylated CSF-1(1-444) together 1 hour; streptavidin-HRP
[6] = biological target: CSF-1R20-512-Fc (R&D Systems cat. 329-MR) (human) (UniProt P07333); assay: competition ELISA, pre-incubation: coated Fc-D1-D5 human CSF-1R, mAb 1 hour, then biotinylated CSF-1(1-444) 1 hour; streptavidin-HRP
[7] = biological target: CSF-1R20-512-Fc (R&D Systems cat. 329-MR) (human) (UniProt P07333); assay: competition ELISA, post-incubation: coated Fc-D1-D5 human CSF-1R, biotinylated CSF-1(1-444) 1 hour, then mAb 1 hour; streptavidin-HRP

| Substance | Ki [1] [nM] | IC50 [2] [nM] | Ki [3] [nM] | decrease of the CSF-1 binding to CSF-1R (%) [4] [%] | IC50 (read off the curve) [5] [µg/mL] | IC50 (read off the curve) [6] [µg/mL] | IC50 (read off the curve) [7] [µg/mL] |
| --- | --- | --- | --- | --- | --- | --- | --- |
| mAb 3291 (murine IgG1, clone 61701, R&D Systems MAB3291) (antibody) | > 1 | 2.18 | 1.28 | 30 to 40 | 1 | 0.5 | 0.6 |
| mAb JF14 (murine IgG1, Santa Cruz sc-80174) (antibody) | > 1 | 3.02 | 1.78 | – | – | – | – |

Reference: US20170002081A1
